± gives the standard deviation of the averaged measurements.
Assay: total protein half-life in vivo (active degradation + dilution); higher = more stable protein
[1] = E. coli NCM3722 delta-clpP delta-lon delta-hslV, growth: N-lim chemostat, doubling time 6 h
[2] = E. coli NCM3722 delta-clpP, growth: N-lim chemostat, doubling time 6 h
[3] = E. coli NCM3722 delta-hslV, growth: N-lim chemostat, doubling time 6 h
[4] = E. coli NCM3722 delta-lon, growth: N-lim chemostat, doubling time 6 h
[5] = E. coli NCM3722 delta-smpB, growth: N-lim chemostat, doubling time 6 h
[6] = wild type E. coli NCM3722, growth: C-lim chemostat, doubling time 3 h
[7] = wild type E. coli NCM3722, growth: C-lim chemostat, doubling time 6 h
[8] = wild type E. coli NCM3722, growth: C-lim chemostat, doubling time 12 h
[9] = wild type E. coli NCM3722, growth: N-lim chemostat, doubling time 6 h
[10] = wild type E. coli NCM3722, growth: N-lim chemostat, doubling time 12 h
[11] = wild type E. coli NCM3722, growth: P-lim chemostat, doubling time 6 h
[12] = wild type E. coli NCM3722, growth: P-lim chemostat, doubling time 12 h

Sequence | total protein half-life in vivo [1] | total protein half-life in vivo [2] | total protein half-life in vivo [3] | total protein half-life in vivo [4] | total protein half-life in vivo [5] | total protein half-life in vivo [6] | total protein half-life in vivo [7] | total protein half-life in vivo [8] | total protein half-life in vivo [9] | total protein half-life in vivo [10] | total protein half-life in vivo [11] | total protein half-life in vivo [12]
MKHYSIQPANLEFNAEGTPVSRDFDDVYFSNDNGLEETRYVFLGGNQLEVRFPEHPHPLFVVAESGFGTGLNFLTLWQAFDQFREAHPQAQLQRLHFISFEKFPLTRADLALAHQHWPELAPWAEQLQAQWPMPLPGCHRLLLDEGRVTLDLWFGDINELTSQLDDSLNQKVDAWFLDGFAPAKNPDMWTQNLFNAMARLARPGGTLATFTSAGFVRRGLQDAGFTMQKRKGFGRKREMLCGVMEQTLPLPCSAPWFNRTGSSKREAAIIGGGIASALLSLALLRRGWQVTLYCADEAPALGASGNRQGALYPLLSKHDEALNRFFSNAFTFARRFYDQLPVKFDHDWCGVTQLGWDEKSQHKIAQMLSMDLPAELAVAVEANAVEQITGVATNCSGITYPQGGWLCPAELTRNVLELAQQQGLQIYYQYQLQNLSRKDDCWLLNFAGDQQATHSVVVLANGHQISRFSQTSTLPVYSVAGQVSHIPTTPELAELKQVLCYDGYLTPQNPANQHHCIGASYHRGSEDTAYSEDDQQQNRQRLIDCFPQAQWAKEVDVSDKEARCGVRCATRDHLPMVGNVPDYEATLVEYASLAEQKDEAVSAPVFDDLFMFAALGSRGLCSAPLCAEILAAQMSDEPIPMDASTLAALNPNRLWVRKLLKGKAVKAG | 4.59 ± 0.099 h | 4.792 ± 0.021 h | 4.36 ± 0.24 h | 4.42 ± 0.19 h | 3.84 ± 0.39 h | 2.83 ± 0.03 h | 5.48 ± 0.74 h | 9.73 ± 0.51 h | 4.41 ± 0.17 h | 8.97 ± 0.84 h | 4.57 ± 0.22 h | 7.48 ± 1 h
MKIELTVNGLKIQAQYQNEEIENVHKPLLHMLAALQTVNPQRRTVVFLCAPPGTGKSTLTTFWEYLAQQDPELPAIQTLPMDGFHHYNSWLDAHQLRPFKGAPETFDVAKLTENLRQVVEGDCTWPQYDRQKHDPVEDALHVTAPLVIVEGNWLLLDDEKWLELASFCDFSIFIHAPAQILRERLISRKIAGGLTRQVAEAFYARTDGPNVERVLMNSRQANLIVEMTEEGRYHFTS | 5.96 h | 1.31 h | – | – | – | – | – | – | – | – | – | –
MKIISKMLVGALALAVTNVYAAELMTKAEFEKVESQYEKIGDISTSNEMSTADAKEDLIKKADEKGADVLVLTSGQTDNKIHGTANIYKKK | 5.25 ± 1.4 h | 5.09 ± 0.88 h | 5.83 ± 1 h | 5.4 ± 0.39 h | 4.12 ± 0.067 h | 2.86 ± 0.34 h | 4.78 ± 0.76 h | 5.78 ± 0.63 h | 5.28 ± 0.32 h | 9.55 ± 3.1 h | 4.64 ± 1.1 h | 9.62 ± 0.2 h
MKIITCFKLVPEEQDIVVTPEYTLNFDNADAKISQFDLNAIEAASQLATDDDEIAALTVGGSLLQNSKVRKDVLSRGPHSLYLVQDAQLEHALPLDTAKALAAAIEKIGFDLLIFGEGSGDLYAQQVGLLVGEILQLPVINAVSAIQRQGNTLVIERTLEDDVEVIELSVPAVLCVTSDINVPRIPSMKAILGAGKKPVNQWQASDIDWSQSAPLAELVGIRVPPQTERKHIIIDNDSPEAIAELAEHLKKALN | – | – | – | 4.32 h | – | 0.95 h | – | – | – | – | – | –
MKIITCYKCVPDEQDIAVNNADGSLDFSKADAKISQYDLNAIEAACQLKQQAAEAQVTALSVGGKALTNAKGRKDVLSRGPDELIVVIDDQFEQALPQQTASALAAAAQKAGFDLILCGDGSSDLYAQQVGLLVGEILNIPAVNGVSKIISLTADTLTVERELEDETETLSIPLPAVVAVSTDINSPQIPSMKAILGAAKKPVQVWSAADIGFNAEAAWSEQQVAAPKQRERQRIVIEGDGEEQIAAFAENLRKVI | – | – | – | – | – | 2.81 ± 0.21 h | 5.04 h | 10.2 h | – | – | – | –
MKIKTILTPVTCALLISFSAHAANADNYKNVINRTGAPQYMKDYDYDDHQRFNPFFDLGAWHGHLLPDGPNTMGGFPGVALLTEEYINFMASNFDRLTVWQDGKKVDFTLEAYSIPGALVQKLTAKDVQVEMTLRFATPRTSLLETKITSNKPLDLVWDGELLEKLEAKEGKPLSDKTIAGEYPDYQRKISATRDGLKVTFGKVRATWDLLTSGESEYQVHKSLPVQTEINGNRFTSKAHINGSTTLYTTYSHLLTAQEVSKEQMQIRDILARPAFYLTASQQRWEEYLKKGLTNPDATPEQTRVAVKAIETLNGNWRSPGGAVKFNTVTPSVTGRWFSGNQTWPWDTWKQAFAMAHFNPDIAKENIRAVFSWQIQPGDSVRPQDVGFVPDLIAWNLSPERGGDGGNWNERNTKPSLAAWSVMEVYNVTQDKTWVAEMYPKLVAYHDWWLRNRDHNGNGVPEYGATRDKAHNTESGEMLFTVKKGDKEETQSGLNNYARVVEKGQYDSLEIPAQVAASWESGRDDAAVFGFIDKEQLDKYVANGGKRSDWTVKFAENRSQDGTLLGYSLLQESVDQASYMYSDNHYLAEMATILGKPEEAKRYRQLAQQLADYINTCMFDPTTQFYYDVRIEDKPLANGCAGKPIVERGKGPEGWSPLFNGAATQANADAVVKVMLDPKEFNTFVPLGTAALTNPAFGADIYWRGRVWVDQFWFGLKGMERYGYRDDALKLADTFFRHAKGLTADGPIQENYNPLTGAQQGAPNFSWSAAHLYMLYNDFFRKQ | – | – | – | – | 6.15 h | – | – | – | – | – | – | –
MKILIVEDDTLLLQGLILAAQTEGYACDSVTTARMAEQSLEAGHYSLVVLDLGLPDEDGLHFLARIRQKKYTLPVLILTARDTLTDKIAGLDVGADDYLVKPFALEELHARIRALLRRHNNQGESELIVGNLTLNMGRRQVWMGGEELILTPKEYALLSRLMLKAGSPVHREILYNDIYNWDNEPSTNTLEVHIHNLRDKVGKARIRTVRGFGYMLVANEEN | 6.35 ± 0.76 h | 5.04 ± 0.91 h | 4.7 ± 0.14 h | 4.71 ± 0.34 h | 3.93 ± 0.24 h | – | 5.33 ± 0.18 h | 9.36 ± 0.56 h | 5.55 ± 1.2 h | 7.56 ± 0.27 h | 4.89 ± 0.26 h | 9.22 ± 0.027 h
MKILRWLFALVMLIATTEAMAAGHSVDVYYGYNGDSRNIATFNLKIMMPSAVYVGEYKSSQWLMTGEILQNVSWSGPPPAPSVKLIGYHQNINKASCPGLPSGWNCGYYTFEVIVSAEIESYFSCPWLVIMNDSEASPGGVTYQGPDSHDTICPSVSVQPYDVSWNENYVSKSKLLTLQSTGGVVEKTLSTYLMKDGKLCDSTQMNETGGYCRWVAQMITFTASGCDKAEVSVTPNRHPITDKQLHDMVVRVDTSSMQPIDSTCRFQYILNEL | 4.06 ± 0.19 h | 4.43 h | – | 4.34 h | 5.02 ± 1.1 h | 3.03 ± 0.58 h | – | 6.01 h | 4.81 h | > 16 h | 4.43 h | 8.64 ± 0.17 h

Source: the supplement of paper PMC11246515
